Measurements reported in patent US20260242478A1 (published 2026).
Where no end group is shown, it is not given here.

Legend:
[1] = biological target: T1, 006 PSMA Fab; assay: phage binding ELISA; biotinylated PSMA Fab on neutravidin plate, clonal phage supernatant, anti-M13 HRP detection; blocking buffer alone;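 further: before phage were added, wells were preincubated with blocking buffer either containing PSMA antigen or without it, and phage were then added with no wash in between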
T1 construct: also called Anti-PSMA Fab
Protocol: (§1) Clonal phage were harvested as crude supernatants and screened via standard ELISAs. […] Prior to the addition of clonal phage. wells were incubated with blocking buffer and PSMA antigen or blocking buffer alone. Without washing or aspirating, clonal phage supernatants were then added to the wells and incubated for a short time. Wells were then washed followed by detection of bound phage using a horse radish conjugated anti-M13 antibody.

[2] = biological target: T1, 006 PSMA Fab; assay: phage binding ELISA; biotinylated PSMA Fab on neutravidin plate pre-incubated with PSMA antigen as competitor, clonal phage supernatant, anti-M13 HRP detection
Protocol: as §1

[3] = biological target: T2, PSMA Fab (006 PSMA Fab) (biotinylated (site not given)); assay: clonal phage ELISA; biotinylated PSMA Fab on neutravidin plate, blocking buffer alone; anti-M13 HRP detection;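 further: crude clonal phage supernatants added without washing to wells pretreated with blocking buffer with or without PSMA antigen, short incubation, then washed before detecting bound phage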
T2 construct: also called Anti-PSMA Fab; anti-PSMA Fab

[4] = biological target: T3, PSMA Fab (biotinylated (site not stated)); assay: clonal phage ELISA; PSMA Fab wells pre-incubated with PSMA antigen as competitor; anti-M13-HRP detection
T3 construct: also called Anti-PSMA Fab; 006 PSMA Fab

[5] = biological target: T3, PSMA Fab; assay: clonal phage ELISA; biotinylated PSMA Fab on neutravidin plate; bound phage detected with anti-M13-HRP
Protocol: as §1

[6] = biological target: T4, PSMA Fab (006 PSMA Fab); assay: clonal phage ELISA; biotinylated PSMA Fab on neutravidin plate, blocking buffer alone, anti-M13-HRP detection;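 further: crude clonal phage supernatants added without washing to wells preincubated with PSMA antigen or with blocking buffer alone, briefly incubated, then washed before bound phage detection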
T4 construct: also called Anti-PSMA Fab; anti-PSMA Fab
Protocol: as §1

[7] = biological target: T4, PSMA Fab (006 PSMA Fab); assay: clonal phage ELISA; biotinylated PSMA Fab on neutravidin plate, wells pre-incubated with PSMA antigen (competitor), anti-M13-HRP detection
Protocol: as §1

Binder	Phage binding ELISA signal, Anti-PSMA Fab [1]	Phage binding ELISA signal, Anti-PSMA Fab with PSMA antigen [2]	Phage binding ELISA signal, Anti-PSMA Fab [3]	other results
DYKWCTPPWMCYSA [Phage-2706]	0.804	0.0621	–	–
EQMWCTPAWMCTGF [Phage-2705]	0.81	0.0782	–	–
QNIRCVPPWMCENL (cysteine pairing not given here; also: displayed on bacteriophage as fusion to pIII, fusion and linker not given here, Tested as clonal phage supernatant; also called Peptide-180 library clone) [Phage-2686]	–	–	0.844	–
MEKWCIPQWMCEQF (cysteine pairing not given here; also: displayed on bacteriophage as fusion to pIII, fusion and linker not given here, Tested as clonal phage supernatant; also called Peptide-180 library clone) [Phage-2692]	–	–	0.834	–
EYAWCIPEWMCGWI (cysteine pairing not given here; also: displayed on bacteriophage as fusion to pIII, fusion and linker not given here, Tested as clonal phage supernatant; also called Peptide-180 library clone) [Phage-2683]	–	–	0.858	–
MDRWCTPAWMCEVH [Phage-2708]	0.794	0.0734	–	–
GEKWCTPLWMCEWY (cysteine pairing not given here; also: displayed on bacteriophage as fusion to pIII, fusion and linker not given here, Tested as clonal phage supernatant; also called Peptide-180 library clone) [Phage-2694]	–	–	0.832	–
THHWCIPAWMCEQD [Phage-2633]	–	–	–	Phage binding ELISA signal, Anti-PSMA Fab with PSMA antigen [4]: 0.0809; Phage binding ELISA signal, Anti-PSMA Fab [5]: 0.967
SVKWCTPPWMCTGL (cysteine pairing not given here; also: displayed on bacteriophage as fusion to pIII, linker not given here) [Phage-2710]	–	–	–	Phage binding ELISA signal, Anti-PSMA Fab [6]: 0.792; Phage binding ELISA signal, Anti-PSMA Fab in presence of PSMA antigen [7]: 0.0767
IVKWCTPPWMCERP (cysteine pairing not given here; also: displayed on bacteriophage as fusion to pIII, fusion and linker not given here, Tested as clonal phage supernatant; also called Peptide-180 library clone) [Phage-2691]	–	–	0.834	–
GEKWCTPPWMCMFQ (cysteine pairing not given here; also: displayed on bacteriophage as fusion to pIII, fusion and linker not given here, Tested as clonal phage supernatant; also called Peptide-180 library clone) [Phage-2681]	–	–	0.861	–
VGNWCIPLWMCAAE (cysteine pairing not given here; also: displayed on bacteriophage as fusion to pIII) [Phage-2704]	0.81	0.0867	–	–
GSHWCEPLWMCSAF [Phage-2699]	0.824	0.0853	–	–
PDNWCIPAWMCERF [Phage-2709]	0.793	0.0679	–	–
PMKLCSPPWMCFYD (cysteine pairing not given here; also: displayed on bacteriophage as fusion to pIII, fusion and linker not given here, Tested as clonal phage supernatant; also called Peptide-180 library clone) [Phage-2685]	–	–	0.85	–
FVKWCTPSWMCESQ [Phage-2697]	0.828	0.0785	–	–
SEAWCIPSWMCRGD (cysteine pairing not given here; also: fused to phage pIII (clonal phage display), Tested as clonal phage supernatant; also called Peptide-180 library clone) [Phage-2684]	–	–	0.857	–

Binder	Phage binding ELISA signal, Anti-PSMA Fab [1]	Phage binding ELISA signal, Anti-PSMA Fab with PSMA antigen [2]	Phage binding ELISA signal, Anti-PSMA Fab [3]	other results
IEKWCTPPWMCESS [Phage-2700]	0.824	0.104	–	–
VHYWCIPAWMCNKS (cysteine pairing not given here; also: displayed on bacteriophage as fusion to pIII, fusion and linker not given here, Tested as clonal phage supernatant; also called Peptide-180 library clone) [Phage-2687]	–	–	0.841	–
HWRMCVPTWMCHLD (cysteine pairing not given here; also: displayed on bacteriophage as fusion to pIII) [Phage-2695]	0.83	0.15	–	–
DMNWCSPPWMCFGF (cysteine pairing not given here; also: displayed on bacteriophage as fusion to pIII, fusion and linker not given here, Tested as clonal phage supernatant; also called Peptide-180 library clone) [Phage-2680]	–	–	0.873	–
TIKWCTPSWMCAEI (cysteine pairing not given here; also: displayed on bacteriophage as fusion to pIII) [Phage-2703]	0.811	0.105	–	–
AEKWCIPEWMCEQL [Phage-2632]	–	–	–	Phage binding ELISA signal, Anti-PSMA Fab with PSMA antigen [4]: 0.0717; Phage binding ELISA signal, Anti-PSMA Fab [5]: 0.972
LVKWCTPTWMCVGM (cysteine pairing not given here; also: displayed on bacteriophage as fusion to pIII, fusion and linker not given here, Tested as clonal phage supernatant; also called Peptide-180 library clone) [Phage-2690]	–	–	0.837	–
MGNWCTPSWMCEGL (cysteine pairing not given here; also: displayed on bacteriophage as fusion to pIII, fusion and linker not given here, Tested as clonal phage supernatant; also called Peptide-180 library clone) [Phage-2693]	–	–	0.833	–
DHKWCTPPWMCAAD (cysteine pairing not given here; also: displayed on bacteriophage as fusion to pIII) [Phage-2707]	0.797	0.0877	–	–
QVPWCTPAWMCERA [Phage-2702]	0.814	0.126	–	–
DVKWCIPSWMCQDV (cysteine pairing not given here; also: displayed on bacteriophage as fusion to pIII, fusion and linker not given here, Tested as clonal phage supernatant; also called Peptide-180 library clone) [Phage-2682]	–	–	0.859	–
EAHLCKPLWMCEFG (cysteine pairing not given here; also: displayed on bacteriophage as fusion to pIII, fusion and linker not given here, Tested as clonal phage supernatant; also called Peptide-180 library clone) [Phage-2688]	–	–	0.84	–
EEMWCIPVWMCEHQ [Phage-2696]	0.829	0.0935	–	–
DNKMCIPVWMCERF [Phage-2698]	0.824	0.0685	–	–
DNMLCRPSWMCEGL [Phage-2701]	0.816	0.0762	–	–
IKPLCSPPWMCSMY (cysteine pairing not given here; also: displayed on bacteriophage as fusion to pIII, fusion and linker not given here, Tested as clonal phage supernatant; also called Peptide-180 library clone) [Phage-2689]	–	–	0.839	–
